The record followed here is patent US8796183B2, “Template fixed beta-hairpin loop mimetics and their use in phage display” (Polyphor Ltd., priority 2003, dated 2014).

Positions of bridges follow the written chain, without caps; N, C: chain ends. No end group written: not given here.

The nature of the series: Circular dichroism. It counts as physicochemical. The conditions noted are these: linear precursor of the compound (before disulfide bridge formation), 10^−4 M in water as TFA salt, room temperature (FIG. 7). The text has this: Circular dichroism measurements are sensitive to the secondary structure of both peptides and proteins and have been extensively used to examine the conformation of both (M. Jourdan, S. R. Griffiths-Jones, M. S. Searle, Eur. J. Biochem. 2000, 267, 3539-3548; J. T. Pelto, L. R. Mc. Lean, Analytical Biochemistry, 2000, 277, 167-176).
Circular Dichroism spectra were obtained on a Jasco J-715 spectropolarimeter, equipped with a spectra manager for windows 95/NT. Version 1.52.01 [Build2]. All measurements were performed at room temperature in quartz cells of 0.1 cm path length in water. Spectra were recorded with a 1 nm bandwidth, five scans were collected to improve the signal-to-noise ratio and the solvent baseline was recorded and subtracted from the spectra of the samples. All CD spectra were smoothed (with the same value), and are reported as molecular ellipticity units (Mol. Ellip.) of peptide residue.
Measurement parameters: Band width: 1.0 nm, response: 1 s, sensitivity: standard, measurement range: 240-190 nm, data pitch: 0.5 nm, scanning speed: 50 nm/min. Concentration of the linear deprotected, purified peptide solutions: 10^−4 M in water as TFA salts. The pH and purity of the linear deprotected, purified peptides as precursors of the following examples were: Example 3: pH 6.38, purity 91%; Example 4: pH 6.77, purity 89%; Example 5: pH 6.01, purity 98%; Example 9: pH 6.00, purity 94%.
On the technique in general: CD spectra are sensitive to the conformation of chiral molecules.
“Example 3: Ac-NH-Cys-Thr-Lys-Trp-Phe-Ser-Asn-His-Tyr-Gln-Thr-Cys-H, cysteines linked by a disulfide bridge; reference not having a template (Ac-CTKWFSNHYQTC; disulfide 1-12 (inferred); also: C-terminus written as -H)”: the “CD-spectrum: secondary structure content” value is “mixture of a coil structure and a β-sheet structure”.

For “Example 4: Ac-NH-Glu-Thr-Cys-Thr-Lys-Trp-Phe-Ser-Asn-His-Tyr-Gln-Thr-Cys-Thr-Lys-H, cysteines linked by a disulfide bridge (Ac-ETCTKWFSNHYQTCTK; disulfide 3-14 (inferred); also: C-terminus written as -H)”, the “CD-spectrum: secondary structure content” value is given as “high content of a β-sheet structure”.

“Example 5: Ac-NH-Cys-Thr-Lys-Trp-Phe-Leu-Ala-His-Tyr-Ala-Thr-Cys-H, cysteines linked by a disulfide bridge; reference not having a template (Ac-CTKWFLAHYATC; disulfide 1-12 (inferred); also: C-terminus written as -H)”: the “CD-spectrum: secondary structure content” value is “high content of coil- and α-helix structure and traces of a β-sheet structure”.

For “Example 9: Ac-NH-Glu-Thr-Cys-Thr-Lys-Trp-Phe-Leu-Ala-His-Tyr-Ala-Thr-Cys-Thr-Lys-H, cysteines linked by a disulfide bridge (Ac-ETCTKWFLAHYATCTK; disulfide 3-14 (inferred); also: C-terminus written as -H)”, the “CD-spectrum: secondary structure content” value is “high content of β-sheet structure and a β-turn structure”.
